Test results from article PMC4267655, “Brr2p carboxy-terminal Sec63 domain modulates Prp16 splicing RNA helicase” (Nucleic Acids Research, 2014).

B1: Prp16p (wild type), LexA-bait fusion [budding yeast] / Brr2 H2-Sec63-2p (wild type), Gal4AD-prey fusion [budding yeast] (parent complex)
chain 1: MGHSGREERIKDIFKELTSKELTPGLLLTLQKLAQKPNTNLEQFIASCKALTKLSSNNPIIFNELLELLKNKSEEDSTGPKKIAPSINKRKKFKIQLDLDDNEDELDSPVQKKPAPTRTLFKRIDKLKAKQLRQYSPTVKDPSPNSEQQTQNGHAETKDYEPTRSEVVEEDREWYDNDDDYGNLVPEPLSELPEEAKLLPVIRNIDNDDALRNTVQLYPIPLKQRMEWIPPFLSKFALENKVPTSIIIGSISETSSQVSALSMVNPFRNPDSEFSANAKRGSKLVALRRINMEHIQQSRDNTTVLNTAMGEVLGLENNNKAKDKSNQKICDDTALFTPSKDDIKHTKEQLPVFRCRSQLLSLIRENQVVVIIGETGSGKTTQLAQYLYEEGYANDRGKSIVVTQPRRVAAISVAKRVAMEMQVPLGKEVGYSIRFEDVTDSECTKLKFVTDGILLRETLLDDTLDKYSCVIIDEAHERSLNTDILLGFFKILLARRRDLKLIITSATMNAKKFSAFFGNAPQFTIPGRTFPVQTIYTSNPVQDYVEAAVSQAVKIHLANDCSSGDILIFMTGQEDIETTFDTLQEKFLQVYSKKFGTANFEEINDIEILPIYSALPADLQFKIFQDLHGTKRKIIIATNIAETSLTIKGIRYVIDCGYSKLKVYNPKIGLDSLVITPISKANADQRSGRAGRTAPGTAYRLYTEDTFKEDMYLQTIPEIQRTNLSNTLLLLKSLDVTDELSKFPFIDKPPLQTFLSSLYELWFIGAIDTSGQLTPLGLQMAKFPLQPSLSKILLIAVRNGCSDEMLTIVSMLSVPQVFYRPKERQKEADIARNKFFIAKSDHLTLLNVFEQWRANNFSSHWCNKHFVQYKSLVRARDIRDQLLTILKSQKIPVISSGKDWDIIKKCICSGFAHQAAKITGLRNYVHLKTGVSVQLHPTSALHGLGDLPPYVVYHELLMTSKEYICCVTSVDPFWLMEYGGLLYDIKRIKNDQEATTTGLFGEHYEHTLDKVEDDIDINIRRCKDMRDSVIQELKMTDNSNKEDKKQKTKKQNILNGKENSMKPFKRRKPFF
chain 2: MTEHETKDKAKKIREIYRYDEMSNKVLKVDKRFMNTSQNPQRDAEISQPKSMSGRISAKDMGQGLCNNINKGLKENDVAVEKTGKSASLKKIQQHNTILNSSSDFRLHYYPKDPSNVETYEQILQWVTEVLGNDIPHDLIIGTADIFIRQLKENEENEDGNIEERKEKIQHELGINIDSLKFNELVKLMKNITDYETHPDNSNKQAVAILADDEKSDEEEVTEMSNNANVLGGEINDNEDDDEEYDYNDVEVNSKKKNKRALPNIENDIIKLSDSKTSNIESVPIYSIDEFFLQRKLRSELGYKDTSVIQDLSEKILNDIETLEHNPVALEQKLVDLLKFENISLAEFILKNRSTIFWGIRLAKSTENEIPNLIEKMVAKGLNDLVEQYKFRETTHSKRELDSGDDQPQSSEAKRTKFSNPAIPPVIDLEKIKFDESSKLMTVTKVSLPEGSFKRVKPQYDEIHIPAPSKPVIDYELKEITSLPDWCQEAFPSSETTSLNPIQSKVFHAAFEGDSNMLICAPTGSGKTNIALLTVLKALSHHYNPKTKKLNLSAFKIVYIAPLKALVQEQVREFQRRLAFLGIKVAELTGDSRLSRKQIDETQVLVSTPEKWDITTRNSNNLAIVELVRLLIIDEIHLLHDDRGPVLESIVARTFWASKYGQEYPRIIGLSATLPNYEDVGRFLRVPKEGLFYFDSSFRPCPLSQQFCGIKERNSLKKLKAMNDACYEKVLESINEGNQIIVFVHSRKETSRTATWLKNKFAEENITHKLTKNDAGSKQILKTEAANVLDPSLRKLIESGIGTHHAGLTRSDRSLSEDLFADGLLQVLVCTATLAWGVNLPAHTVIIKGTDVYSPEKGSWEQLSPQDVLQMLGRAGRPRYDTFGEGIIITDQSNVQYYLSVLNQQLPIESQFVSKLVDNLNAEVVAGNIKCRNDAVNWLAYTYLYVRMLASPMLYKVPDISSDGQLKKFRESLVHSALCILKEQELVLYDAENDVIEATDLGNIASSFYINHASMDVYNRELDEHTTQIDLFRIFSMSEEFKYVSVRYEEKRELKQLLEKAPIPIREDIDDPLAKVNVLLQSYFSQLKFEGFALNSDIVFIHQNAGRLLRAMFEICLKRGWGHPTRMLLNLCKSATTKMWPTNCPLRQFKTCPVEVIKRLEASTVPWGDYLQLETPAEVGRAIRSEKYGKQVYDLLKRFPKMSVTCNAQPITRSVMRFNIEIIADWIWDMNVHGSLEPFLLMLEDTDGDSILYYDVLFITPDIVGHEFTLSFTYELKQHNQNNLPPNFFLTLISENWWHSEFEIPVSFNGFKLPKKFPPPTPLLENISISTSELGNDDFSEVFEFKTFNKIQSQVFESLYNSNDSVFVGSGKGTGKTAMAELALLNHWRQNKGRAVYINPSGEKIDFLLSDWNKRFSHLAGGKIINKLGNDPSLNLKLLAKSHVLLATPVQFELLSRRWRQRKNIQSLELMIYDDAHEISQGVYGAVYETLISRMIFIATQLEKKIRFVCLSNCLANARDFGEWAGMTKSNIYNFSPSERIEPLEINIQSFKDVEHISFNFSMLQMAFEASAAAAGNRNSSSVFLPSRKDCMEVASAFMKFSKAIEWDMLNVEEEQIVPYIEKLTDGHLRAPLKHGVGILYKGMASNDERIVKRLYEYGAVSVLLISKDCSAFACKTDEVIILGTNLYDGAEHKYMPYTINELLEMVGLASGNDSMAGKVLILTSHNMKAYYKKFLIEPLPTESYLQYIIHDTLNNEIANSIIQSKQDCVDWFTYSYFYRRIHVNPSYYGVRDTSPHGISVFLSNLVETCLNDLVESSFIEIDDTEAEVTAEVNGGDDEATEIISTLSNGLIASHYGVSFFTIQSFVSSLSNTSTLKNMLYVLSTAVEFESVPLRKGDRALLVKLSKRLPLRFPEHTSSGSVSFKVFLLLQAYFSRLELPVDFQNDLKDILEKVVPLINVVVDILSANGYLNATTAMDLAQMLIQGVWDVDNPLRQIPHFNNKILEKCKEINVETVYDIMALEDEERDEILTLTDSQLAQVAAFVNNYPNVELTYSLNNSDSLISGVKQKITIQLTRDVEPENLQVTSEKYPFDKLESWWLVLGEVSKKELYAIKKVTLNKETQQYELEFDTPTSGKHNLTIWCVCDSYLDADKELSFEINVK

Variants of: B1
Test: Y2H interaction assay; growth on -LWH medium with 3-AT; parent: 50 nM

| Variant | screen value [mM] |
| --- | --- |
| chain 1 R686Q | 50 |
| chain 1 R686I | 0 |
| chain 1 T507A | 50 |
| chain 1 Q685H | 50 |
| chain 1 H476D | 50 |
| chain 1 R456K, chain 1 G691R | 0 |
| chain 1 L335F | 50 |
| chain 1 K379R | 50 |
| chain 1 D473E | 50 |

Variants of: B1
Test: as above
Remark: another data set of the same source

| Variant | screen value [mM] |
| --- | --- |
| chain 2 R1899G | 150 |
| chain 2 L1951P | 0 |
